Article PMC11581011

Molecular target: recombinantly expressed FphB protein (rFphB), wild type (Staphylococcus aureus) (UniProt Q2FV90)

FphB-OX-5 (peptide)
IC50 of inhibition of rFphB (100 nM), cleavage of the 4-MUB substrate (20 μM): 1.8 µM
